Assay results reported in paper PMC6393304 (Nucleic Acids Research, 2018).

Target: the molecule itself
Experiment: crystal structure

| Protein | binding result |
| --- | --- |
| C-terminal bZIP domain of human C/EBPβ (residues 269–344), wild type (domain or fragment) HMKHSDEYKIRRERNNIAVRKSRDKAKMRNLETQHKVLELTAENERLQKKVEQLSRELSTLRNLFKQLPEPLLASSGH | binds |
| C-terminal bZIP domain of human C/EBPβ (residues 269–344), V285A variant (domain or fragment) HMKHSDEYKIRRERNNIAARKSRDKAKMRNLETQHKVLELTAENERLQKKVEQLSRELSTLRNLFKQLPEPLLASSGH | binds |
